Publication PMC10924461, “Structure and ligand binding in the putative anti-microbial peptide transporter protein, YejA” (Microbiology, 2024)

Key:
[1] = target: T1, YejA, periplasmic solute-binding protein of the YejABEF ABC transporter from E. coli (E. coli K12, UniProt P33913 20-604); experiment: thermal shift assay (SYPRO orange); 0.5 mg ml^-1 (7.3 µM) YejA, 5x SYPRO orange, 25 µl, 25-96 °C in 1 °C/30 s steps; synthetic peptides added; a shift greater than 3 °C taken as significant; settings: both partners purified
T1 construct: YejA, E. coli K12, residues 1-585 (Gln1-Glu585) of the mature protein, without the signal peptide; numbers count on: the mature protein; also called EcYejA; recombinant YejA; source: E. coli BL21 (DE3) with pBKA101, purified (HisTrap, HRV 3C cleavage, S200 SEC); not shown: His6, C-terminal, cleaved
T1 sequence (looked up): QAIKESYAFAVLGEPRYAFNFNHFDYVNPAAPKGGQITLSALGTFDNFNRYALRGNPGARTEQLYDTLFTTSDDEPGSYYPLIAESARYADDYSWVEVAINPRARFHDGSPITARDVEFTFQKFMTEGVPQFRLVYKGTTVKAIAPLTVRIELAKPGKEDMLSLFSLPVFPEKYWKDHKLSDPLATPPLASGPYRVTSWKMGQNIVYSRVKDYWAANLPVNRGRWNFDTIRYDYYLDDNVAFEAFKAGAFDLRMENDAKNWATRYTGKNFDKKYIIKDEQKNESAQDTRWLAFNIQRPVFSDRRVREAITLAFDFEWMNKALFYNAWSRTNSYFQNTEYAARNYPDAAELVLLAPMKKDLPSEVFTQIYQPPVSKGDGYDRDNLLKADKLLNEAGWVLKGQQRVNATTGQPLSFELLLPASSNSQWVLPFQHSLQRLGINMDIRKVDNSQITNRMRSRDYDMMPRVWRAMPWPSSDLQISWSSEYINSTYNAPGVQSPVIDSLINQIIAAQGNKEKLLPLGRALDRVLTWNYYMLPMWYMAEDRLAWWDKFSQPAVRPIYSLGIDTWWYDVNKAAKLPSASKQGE

[2] = target: T1, YejA, periplasmic solute-binding …; experiment: as above; settings: both partners purified; remark: listed apart in the source

B1: GEPRYAFNFN (peptide)
peptide: GEPRYAFNFN
notes: YejA, E. coli, stretch of the N-terminal segment; numbers count on: the mature protein; source: synthetic peptide
melting temp. change with 2.5 mg ml^-1 (2.06 mM) peptide [1]: 14 °C

B2: VLGEPRYAFNFNHFD (peptide)
peptide: VLGEPRYAFNFNHFD
notes: YejA, E. coli, stretch of the N-terminal segment; numbers count on: the mature protein; also called 15-mer; source: co-purified with recombinant YejA (self-derived); synthetic peptide
melting temp. change with 2.5 mg ml^-1 (1.37 mM) peptide [1]: 26 °C

B3: LGEPRYAFNFN (peptide)
peptide: LGEPRYAFNFN
notes: YejA, E. coli, residues 12-22 of the N-terminal segment; numbers count on: the mature protein; also called undecapeptide; 11-mer; source: co-purified and co-crystallised with recombinant YejA (self-derived); synthetic peptide
melting temp. change with 0.75 mg ml^-1 (0.56 mM) peptide [1]: 13 °C
Tm of YejA with 0.005 mg ml^-1 peptide (60.8 °C without peptide) [2]: 62.6 °C
Tm of YejA with 0.05 mg ml^-1 peptide (60.8 °C without peptide) [2]: 67.5 °C

B4: LGEPAYAFNFN (peptide)
peptide: LGEPAYAFNFN
notes: numbers count on: the peptide (Leu1 = residue 12 of mature YejA); source: synthetic peptide
melting temp. change with 2.5 mg ml^-1 (2.01 mM) peptide [1]: 7 °C

B5: LGEPRWAFNFN (peptide)
peptide: LGEPRWAFNFN
notes: numbers count on: the peptide (Leu1 = residue 12 of mature YejA); also called Trp-containing peptide; Trp6 containing peptide; source: synthetic peptide
melting temp. change with 2.5 mg ml^-1 (1.85 mM) peptide [1]: 22 °C

B6: EPRYAFNFN (peptide)
peptide: EPRYAFNFN
notes: as for B1
melting temp. change with 2.5 mg ml^-1 (2.16 mM) peptide [1]: 8 °C

B7: VLGEPRYAFNF (peptide)
peptide: VLGEPRYAFNF
notes: YejA, E. coli, stretch of the N-terminal segment; numbers count on: the mature protein; source: co-purified with recombinant YejA (self-derived); synthetic peptide
melting temp. change with 2.5 mg ml^-1 (1.9 mM) peptide [1]: 22 °C

B8: LGEPRYAFN (peptide)
peptide: LGEPRYAFN
notes: as for B1
melting temp. change with 1.25 mg ml^-1 (1.17 mM) peptide [1]: 17 °C

B9: VLGEPRYAFNFN (peptide)
peptide: VLGEPRYAFNFN
notes: YejA, E. coli, stretch of the N-terminal segment; numbers count on: the mature protein; also called dodecapeptide; 12-mer; source: co-purified with recombinant YejA (self-derived); synthetic peptide
melting temp. change with 2.5 mg ml^-1 (1.75 mM) peptide [1]: 21 °C

B10: FAVLGEPRYAFN (peptide)
peptide: FAVLGEPRYAFN
notes: as for B7
melting temp. change with 5 mg ml^-1 (3.61 mM) peptide [1]: 19 °C

B11: LGEPRYAFNF (peptide)
peptide: LGEPRYAFNF
notes: as for B1
melting temp. change with 2.5 mg ml^-1 (2.06 mM) peptide [1]: 20 °C
